Experimental data as given in patent US20190017043A1.

Molecular target: MBP-Z-N6K (Z-domain protein with Asn6 mutated to Lys, fused with maltose binding protein) [MBP: P0AEX9]
Assay: covalent protein-protein cross-linking after sodium periodate treatment, 4 hours, SDS-PAGE

## AFB-D36DOPA (ZSPA affibody with L-DOPA genetically incorporated at position 36) (designed binder)
  cross-linked products: 70 to 75%
